{"source": "patent US20180021429A1", "about": "“ANTICANCER AGENTS OR ANTIMETASTATIC AGENTS USING FSTL1 AND COMBINATION DRUG THEREOF” (PHARMA FOODS INTERNATIONAL CO., LTD., priority 2015, published 2018)", "molecules": {"B1": {"name": "#33: chicken-mouse chimeric anti-FSTL1 antibody clone; variable regions SEQ ID NO: 823 (light), 825 (heavy) (antibody, V domains shown)", "VH": "AVTLDESGGGLQTPGGGLSLVCKASGFTFSSFNMNWVRQAPGKGLEYVAEISGTGSSTYYGSAVKGRATISRDNGQSTVRLQLNNLRAEDTATYFCARGDGAYSIDAWGHGTEVIVSS", "VL": "ASTQPSSVSANPGETVEITCSGDSSYYGWFQQKSPGSAPVTVIYDNTNRPSDIPSRFSGSKSGSTATLTITGVRAEDEAVYYCGGYDSSTYDGIFGAGTTLTVL", "modifications": "mouse constant regions"}, "B2": {"name": "#13: chicken-mouse chimeric anti-FSTL1 antibody clone; variable regions SEQ ID NO: 815 (light), 817 (heavy) (antibody, V domains shown)", "VH": "AVTLDESGGGLQTPGGGLSLVCKASGFTFSSVTMQWVRQAPGKGLEWVASICSGSSTYYGPAVKGRATISRDNGQNTVRLQLNNLRAEDTATYYCAKIVGRGRWSCTSAAYNIDAWGHGTEVIVSS", "VL": "ASTQPSSVSANPGETVKITCSGGGNNYGWYQQKSPGSAPVTVIYNNNNRPSNIPSRFSGSKSGSTNTLTITGVQAEDEAVYYCGSYDSSSDSGIFGAGTTLTVL", "modifications": "mouse constant regions"}, "B3": {"name": "#6-55: chicken-mouse chimeric anti-FSTL1 antibody clone; variable regions SEQ ID NO: 783 (light), 785 (heavy) (antibody, V domains shown)", "VH": "AVTLDESGGGLQTPGGALSLVCKGSGFTFTSVTMQWVRQAPGKGLEWVASVCSGSSTYYAPAVKGRATISRDNGQSTVRLQLSNLRPEDTGTYYCAKIAGRARWSCTSAAYNIDAWGHGTEVIVSS", "VL": "ASTQPSSVSAIPGETVKITCSGGGNNYGWYQQRSPGSAPVTVIYYNDNRPSNIPSRFSGSTSGSTSTLTITGVQADDEAIYYCGSWDSNTDSGIFGAGTTLTVL", "modifications": "mouse constant regions"}, "B4": {"name": "#7-34: chicken-mouse chimeric anti-FSTL1 antibody clone; variable regions SEQ ID NO: 787 (light), 789 (heavy) (antibody, V domains shown)", "VH": "B2 VH", "VL": "B2 VL with N45Y, K61T, N66S, D87E, S88G, S90T", "modifications": "mouse constant regions"}, "B5": {"name": "#8-1: chicken-mouse chimeric anti-FSTL1 antibody clone; variable regions SEQ ID NO: 791 (light), 793 (heavy) (antibody, V domains shown)", "VH": "AVTLDESGGGLQTPGGALSLVCKGSGFTFSSFNMFWVRQAPGKGLEWVAGIGKDGVPKYGAAVDGRATISKDNGQSTMRLQLNNLRAEDTGTYFCAKAAGGCSYDWCGIYAGDIDTWGHGTEVIVSS", "VL": "ASTQPSSVSANPGEAVKITCSGGSGSYYGWYQQKSPGSAPVTVIYNNNQRPSDIPSRFSGSKSGSTATLTITGVQAEDEAVYFCGGYDSSSGHGGIFGAGTTLTVL", "modifications": "mouse constant regions"}}, "key": {"[1]": {"tested_on": "C57/BL/6 mouse-derived bone marrow cells", "test": "MSC induction inhibition test using mouse bone marrow cells, FSTL1 stimulation (Example 27)", "type": "cell-based", "conditions": "FSTL1 20 ng/mL; antibody 10 μg/mL; 8 days; FIG. 21A", "procedure": "In this Example, the inhibitory activity of the anti-FSTL1 antibody was confirmed in an experimental system of mesenchymal stem cell induction while a FSTL1 inhibitory effect on MSC expansion induced not only by FSTL1 but by Snail+ tumor cells was also evaluated. For specific operation, each antibody (10 μg/mL) was added to systems in which C57/BL/6 mouse-derived bone marrow cells were stimulated with FSTL1 (20 ng/mL) or a culture supernatant of tumor cells. After culture for 8 days under stimulation, cell fraction CD45(−) cells (MSCs) containing MSCs at a high rate and CD45(−)CD146(+)ALCAM(+) cells (sMSCs) increasing in number in association with cancer metastasis were analyzed by flow cytometry in the same way as in Example 14, and the number of cells per culture system was counted. In this Example, mouse immunoglobulin manufactured by BioLegend, Inc. (#401408, Cone MG1-45) was used as a control antibody."}, "[2]": {"tested_on": "GFP+F10-snail+ tumor cells", "test": "In vivo drug efficacy of each anti-FSTL1 antibody clone, GFP+F10-snail+ tumor model (Example 32)", "design": "species or system mouse", "conditions": "intraperitoneal 10 mg/kg on days 4 and 7; for mouse survival period (life-prolonging effect): FIG. 121", "procedure": "(§1) • Day 0: transplantation of GFP+F10-snail+ tumor cells (3×10^5 cells subcutaneously & 2×10^4 cells intravenously) • Day 4: intraperitoneal administration of the antibody (first dose, 10 mg/kg) • Day 7: intraperitoneal administration of the antibody (second dose, 10 mg/kg)\n(§2) Subcutaneous tumor was measured 4, 7, 10, 14, 17, 20, and 23 days after tumor cell transplantation."}, "[3]": {"tested_on": "GFP+F10-snail+ tumor cells", "test": "In vivo drug efficacy of each anti-FSTL1 antibody clone, GFP+F10-snail+ tumor model (Example 32)", "design": "species or system mouse", "conditions": "intraperitoneal 10 mg/kg on days 4 and 7; vs control antibody", "procedure": "as §1, §2\nExperiment Group (n=5) Control IgG (anti-DNP mAb) • #6-55 • #7 • #10 • #13 • #33\n• Day 0: transplantation of GFP+F10-snail+ tumor cells (3×10^5, cells subcutaneously & 2×10^4 cells intravenously) • Day 4: intraperitoneal administration of the antibody (first dose, 10 mg/kg) • Day 7: intraperitoneal administration of the antibody (second dose, 10 mg/kg)"}, "[4]": {"tested_on": "mouse melanoma cells (B16-F10) forced to express Snail", "test": "In vivo, intraperitoneal administration, Snail-positive B16-F10 bone metastasis model (Example 18)", "design": "species or system C57BL/6N mice", "conditions": "intraperitoneal 10 mg/kg on days 5 and 10; day 14", "description": "1. Experiment Group (n=5) • 1. No treatment (0.9% NaCi as a sham) • 2. Control IgG (anti-DNP) • 3. Anti-FSTL1 Clone #6-55 • 4. Anti-FSTL1 Clone #7-34 • 5. Anti-FSTL1 Clone #8-1 […]\n• Effects on the growth of subcutaneous tumor (calculation of tumor volume by tumor size measurement): measured 7, 11, and 14 days after tumor implantation (FIG. 12B) • Effects on bone metastasis (GFP-positive tumor cells in bone marrow or the spleen) (FIGS. 12A and 12C) • Effects on MSC expansion (CD45-negative cells in bone marrow or the spleen) (FIGS. 12A and 12C) • Effects on weight loss (FIG. 12A) • Effects on the expansion of immunosuppressive Treg cells (CD4-positive and Foxp3-positive cells in the spleen) (FIG. 12C) • Other immunosuppressive properties (FIG. 12C)\nIn Example 17, the antibody was administered into tumor according to the purpose of “inhibiting metastasis from a primary focus to bone” as previously conducted by the present inventors. […] Specifically, antitumor effects and immunosuppression-mitigating effects were comparatively analyzed by the intraperitoneal administration (systemic administration) of the anti-FSTL1 antibody using bone metastasis models in which mouse melanoma cells (B16-F10) forced to express Snail were subcutaneously and intravenously transplanted in C57BL/6N mice. […]"}, "[5]": {"target": "T1, human FSTL1 (Homo sapiens, UniProt Q12841)", "T1 construct": "AAA linker + 10xHis (C); made in house; host or cells: Expi293 (transient expression; purified from culture supernatant on HisPur Cobalt Resin)", "T1 sequence (Q12841 with tags, fused parts or gaps)": "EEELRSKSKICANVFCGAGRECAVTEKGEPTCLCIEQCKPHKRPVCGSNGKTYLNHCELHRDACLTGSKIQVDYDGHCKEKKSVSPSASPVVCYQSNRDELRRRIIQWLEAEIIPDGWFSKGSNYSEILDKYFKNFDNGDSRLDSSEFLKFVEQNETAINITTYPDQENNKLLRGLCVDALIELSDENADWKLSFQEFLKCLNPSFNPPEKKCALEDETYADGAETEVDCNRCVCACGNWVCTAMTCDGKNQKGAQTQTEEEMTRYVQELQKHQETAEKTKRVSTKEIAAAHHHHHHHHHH", "test": "ELISA, binding activity of purified antibody against human FSTL1 (Example 2)", "conditions": "cross reactivity test; antibody diluted from 1000 ng/ml", "procedure": "The reactivity of the obtained antibody clones described above with FSTL1 was evaluated by ELISA under the following conditions.\nAntibodies used: anti-dinitrophenyl (DNP) antibody (negative control), #5-2, #5-3, #5-8, #5-10, #5-43, #6-55, and #7-34\nFIGS. 64 and 65 show results of evaluating binding activity under the condition of Table 3 as to clones differing in screening and antibody purification timings."}}, "note": "Positions count from the first letter of the chain named. “Also recorded” adds a separate entry of the source."}
{"molecule": "B1", "values": [{"measurement": "MSC induction inhibitory activity (CD45(−) MSCs, CD45(−)CD146(+)ALCAM(+) sMSCs)", "setting": "[1]", "value": "strong inhibitory effect equivalent to or higher than that of #6-55; also recorded: high MSC induction inhibitory activity equivalent to or higher than that of #6-55"}, {"measurement": "mouse survival period (life-prolonging effect)", "setting": "[2]", "value": "therapeutic effects equal to or higher than those of #6-55"}, {"measurement": "mouse survival period (life-prolonging effect)", "setting": "[3]", "value": "therapeutic effects equal to or higher than those of #6-55"}]}
{"molecule": "B2", "values": [{"measurement": "MSC induction inhibitory activity (CD45(−) MSCs, CD45(−)CD146(+)ALCAM(+) sMSCs)", "setting": "[1]", "value": "strong inhibitory effect equivalent to or higher than that of #6-55"}]}
{"molecule": "B3", "values": [{"measurement": "anti-weight loss effect", "setting": "[4]", "value": "an anti-weight loss effect (right graph of FIG. 12A) was confirmed"}, {"measurement": "binding activity against human FSTL1", "setting": "[5]", "value": "specific and equivalently strong binding activity"}, {"measurement": "mouse survival period (life-prolonging effect)", "setting": "[2]", "value": "statistically significant life-prolonging effect"}, {"measurement": "suppressive activity against subcutaneous tumor growth", "setting": "[2]; vs control antibody group, FIG. 120", "value": "statistically significant suppressive activity"}, {"measurement": "mouse survival period (life-prolonging effect)", "setting": "[3]", "value": "statistically significant life-prolonging effect"}, {"measurement": "suppressive activity against subcutaneous tumor growth", "setting": "[3]", "value": "statistically significant suppressive activity"}]}
{"molecule": "B4", "values": [{"measurement": "binding activity against human FSTL1", "setting": "[5]", "value": "specific and equivalently strong binding activity"}]}
{"molecule": "B5", "values": [{"measurement": "anti-weight loss effect", "setting": "[4]", "value": "an anti-weight loss effect (right graph of FIG. 12A) was confirmed"}]}
